We go through 14 molecules from patent US12099068B2, “Biomarkers for graft-versus-host disease” (Incyte Corporation, priority 2018, dated 2024).

First the molecules themselves.
B1: RASSF2 (protein, UniProt P50749 1-326, looked up)
Ras association …: MDYSHQTSLVPCGQDKYISKNELLLHLKTYNLYYEGQNLQLRHREEEDEFIVEGLLNISWGLRRPIRLQMQDDNERIRPPPSSSSWHSGCNLGAQGTTLKPLTVPKVQISEVDAPPEGDQMPSSTDSRGLKPLQEDTPQLMRTRSDVGVRRRGNVRTPSDQRRIRRHRFSINGHFYNHKTSVFTPAYGSVTNVRINSTMTTPQVLKLLLNKFKIENSAEEFALYVVHTSGEKQKLKATDYPLIARILQGPCEQISKVFLMEKDQVEEVTYDVAQYIKFEMPVLKSFIQKLQEEEDREVKKLMRKYTVLRLMIRQRLEEIAETPATI
B2: PVALB (protein, UniProt P20472 2-110, looked up)
Parvalbumin alpha: SMTDLLNAEDIKKAVGAFSATDSFDHKKFFQMVGLKKKSADDVKKVFHMLDKDKSGFIEEDELGFILKGFSPDARDLSAKETKMLMAAGDKDGDGKIGVDEFSTLVAES
B3: IgG Fc receptor II-b (protein, UniProt P31994 43-310, looked up)
Low affinity immunoglobulin …: TPAAPPKAVLKLEPQWINVLQEDSVTLTCRGTHSPESDSIQWFHNGNLIPTHTQPSYRFKANNNDSGEYTCQTGQTSLSDPVHLTVLSEWLVLQTPHLEFQEGETIVLRCHSWKDKPLVKVTFFQNGKSKKFSRSDPNFSIPQANHSHSGDYHCTGNIGYTLYSSKPVTITVQAPSSSPMGIIVAVVTGIAVAAIVAAVVALIYCRKKRISALPGYPECREMGETLPEKPANPTNPDEADKVGAENTITYSLLMHPDALEEPDDQNRI
B4: LAIR1 (protein, UniProt Q6GTX8 22-287, looked up)
Leukocyte-associated …: QEEDLPRPSISAEPGTVIPLGSHVTFVCRGPVGVQTFRLERDSRSTYNDTEDVSQASPSESEARFRIDSVREGNAGLYRCIYYKPPKWSEQSDYLELLVKESSGGPDSPDTEPGSSAGPTQRPSDNSHNEHAPASQGLKAEHLYILIGVSVVFLFCLLLLVLFCLHRQNQIKQGPPRSKDEEQKPQQRPDLAVDVLERTADKATVNGLPEKDRETDTSALAAGSSQEVTYAQLDHWALTQRTARAVSPQSTKPMAESITYAAVARH
B5: ITGB6 (protein, UniProt P18564 22-788, looked up)
Integrin beta-6: GCALGGAETCEDCLLIGPQCAWCAQENFTHPSGVGERCDTPANLLAKGCQLNFIENPVSQVEILKNKPLSVGRQKNSSDIVQIAPQSLILKLRPGGAQTLQVHVRQTEDYPVDLYYLMDLSASMDDDLNTIKELGSRLSKEMSKLTSNFRLGFGSFVEKPVSPFVKTTPEEIANPCSSIPYFCLPTFGFKHILPLTNDAERFNEIVKNQKISANIDTPEGGFDAIMQAAVCKEKIGWRNDSLHLLVFVSDADSHFGMDSKLAGIVIPNDGLCHLDSKNEYSMSTVLEYPTIGQLIDKLVQNNVLLIFAVTQEQVHLYENYAKLIPGATVGLLQKDSGNILQLIISAYEELRSEVELEVLGDTEGLNLSFTAICNNGTLFQHQKKCSHMKVGDTASFSVTVNIPHCERRSRHIIIKPVGLGDALELLVSPECNCDCQKEVEVNSSKCHHGNGSFQCGVCACHPGHMGPRCECGEDMLSTDSCKEAPDHPSCSGRGDCYCGQCICHLSPYGNIYGPYCQCDNFSCVRHKGLLCGGNGDCDCGECVCRSGWTGEYCNCTTSTDSCVSEDGVLCSGRGDCVCGKCVCTNPGASGPTCERCPTCGDPCNSKRSCIECHLSAAGQAREECVDKCKLAGATISEEEDFSKDGSVSCSLQGENECLITFLITTDNEGKTIIHSINEKDCPKPPNIPMIMLGVSLAILLIGVVLLCIWKLLVSFHDRKEVAKFEAERSKAKWQTGTNPLYRGSTSTFKNVTYKHREKQKVDLSTDC
B6: CLEC7A (protein, UniProt Q9BXN2 1-247, looked up)
C-type lectin domain family 7 …: MEYHPDLENLDEDGYTQLHFDSQSNTRIAVVSEKGSCAASPPWRLIAVILGILCLVILVIAVVLGTMAIWRSNSGSNTLENGYFLSRNKENHSQPTQSSLEDSVTPTKAVKTTGVLSSPCPPNWIIYEKSCYLFSMSLNSWDGSKRQCWQLGSNLLKIDSSNELGFIVKQVSSQPDNSFWIGLSRPQTEVPWLWEDGSTFSSNLFQIRTTATQENPSPNCVWIHVSVIYDQLCSVPSYSICEKKFSM
B7: FAM3B (protein, UniProt P58499 30-235, looked up)
Protein FAM3B: ELIPDAPLSSAAYSIRSIGERPVLKAPVPKRQKCDHWTPCPSDTYAYRLLSGGGRSKYAKICFEDNLLMGEQLGNVARGINIAIVNYVTGNVTATRCFDMYEGDNSGPMTKFIQSAAPKSLLFMVTYDDGSTRLNNDAKNAIEALGSKEIRNMKFRSSWVFIAAKGLELPSEIQREKINHSDAKNNRYSGWPAEIQIEGCIPKERS
B8: SCGB3A2 (protein, UniProt Q96PL1 22-93, looked up)
Secretoglobin family 3A …: FLINKVPLPVDKLAPLPLDNILPFMDPLKLLLKTLGISVEHLVEGLRKCVNELGPEASEAVKKLLEALSHLV
B9: SLAMF8 (protein, UniProt Q9P0V8 23-285, looked up)
SLAM family member 8: AQVLSKVGGSVLLVAARPPGFQVREAIWRSLWPSEELLATFFRGSLETLYHSRFLGRAQLHSNLSLELGPLESGDSGNFSVLMVDTRGQPWTQTLQLKVYDAVPRPVVQVFIAVERDAQPSKTCQVFLSCWAPNISEITYSWRRETTMDFGMEPHSLFTDGQVLSISLGPGDRDVAYSCIVSNPVSWDLATVTPWDSCHHEAAPGKASYKDVLLVVVPVSLLLMLVTLFSAWHWCPCSGKKKKDVHADRVGPETENPLVQDLP
B10: RTN4R (protein, UniProt Q9BZR6 27-447, looked up)
Reticulon-4 receptor: CPGACVCYNEPKVTTSCPQQGLQAVPVGIPAASQRIFLHGNRISHVPAASFRACRNLTILWLHSNVLARIDAAAFTGLALLEQLDLSDNAQLRSVDPATFHGLGRLHTLHLDRCGLQELGPGLFRGLAALQYLYLQDNALQALPDDTFRDLGNLTHLFLHGNRISSVPERAFRGLHSLDRLLLHQNRVAHVHPHAFRDLGRLMTLYLFANNLSALPTEALAPLRALQYLRLNDNPWVCDCRARPLWAWLQKFRGSSSEVPCSLPQRLAGRDLKRLAANDLQGCAVATGPYHPIWTGRATDEEPLGLPKCCQPDAADKASVLEPGRPASAGNALKGRVPPGDSPPGNGSGPRHINDSPFGTLPGSAEPPLTAVRPEGSEPPGFPTSGPRRRPGCSRKNRTRSHCRLGQAGSGGGGTGDSEGS
B11: RGMB (protein, UniProt Q6NW40 46-413, looked up)
Repulsive guidance molecule B: GDCQQPAQCRIQKCTTDFVSLTSHLNSAVDGFDSEFCKALRAYAGCTQRTSKACRGNLVYHSAVLGISDLMSQRNCSKDGPTSSTNPEVTHDPCNYHSHAGAREHRRGDQNPPSYLFCGLFGDPHLRTFKDNFQTCKVEGAWPLIDNNYLSVQVTNVPVVPGSSATATNKITIIFKAHHECTDQKVYQAVTDDLPAAFVDGTTSGGDSDAKSLRIVERESGHYVEMHARYIGTTVFVRQVGRYLTLAIRMPEDLAMSYEESQDLQLCVNGCPLSERIDDGQGQVSAILGHSLPRTSLVQAWPGYTLETANTQCHEKMPVKDIYFQSCVFDLLTTGDANFTAAAHSALEDVEALHPRKERWHIFPSSGN
B12: SCARF2 (protein, UniProt Q96GP6 44-871, looked up)
Scavenger receptor class F …: QELNPRGRNVCRAPGSQVPTCCAGWRQQGDECGIAVCEGNSTCSENEVCVRPGECRCRHGYFGANCDTKCPRQFWGPDCKELCSCHPHGQCEDVTGQCTCHARRWGARCEHACQCQHGTCHPRSGACRCEPGWWGAQCASACYCSATSRCDPQTGACLCHAGWWGRSCNNQCACNSSPCEQQSGRCQCRERTFGARCDRYCQCFRGRCHPVDGTCACEPGYRGKYCREPCPAGFYGLGCRRRCGQCKGQQPCTVAEGRCLTCEPGWNGTKCDQPCATGFYGEGCSHRCPPCRDGHACNHVTGKCTRCNAGWIGDRCETKCSNGTYGEDCAFVCADCGSGHCDFQSGRCLCSPGVHGPHCNVTCPPGLHGADCAQACSCHEDTCDPVTGACHLETNQRKGVMGAGALLVLLVCLLLSLLGCCCACRGKDPTRRPRPRRELSLGRKKAPHRLCGRFSRISMKLPRIPLRRQKLPKVVVAHHDLDNTLNCSFLEPPSGLEQPSPSWSSRASFSSFDTTDEGPVYCVPHEEAPAESRDPEVPTVPAEAPAPSPVPLTTPASAEEAIPLPASSDSERSASSVEGPGGALYARVARREARPARARGEIGGLSLSPSPERRKPPPPDPATKPKVSWIHGKHSAAAAGRAPSPPPPGSEAAPSPSKRKRTPSDKSAHTVEHGSPRTRDPTPRPPGLPEEATALAAPSPPRARARGRGPGLLEPTDAGGPPRSAPEAASMLAAELRGKTRSLGRAEVALGAQGPREKPAPPQKAKRSVPPASPARAPPATETPGPEKAATDLPAPETPRKKTPIQKPPRKKSREAAGELGRAGAPTL
B13: SCAMP3 (protein, UniProt O14828 1-347, looked up)
Secretory carrier-associated …: MAQSRDGGNPFAEPSELDNPFQDPAVIQHRPSRQYATLDVYNPFETREPPPAYEPPAPAPLPPPSAPSLQPSRKLSPTEPKNYGSYSTQASAAAATAELLKKQEELNRKAEELDRRERELQHAALGGTATRQNNWPPLPSFCPVQPCFFQDISMEIPQEFQKTVSTMYYLWMCSTLALLLNFLACLASFCVETNNGAGFGLSILWVLLFTPCSFVCWYRPMYKAFRSDSSFNFFVFFFIFFVQDVLFVLQAIGIPGWGFSGWISALVVPKGNTAVSVLMLLVALLFTGIAVLGIVMLKRIHSLYRRTGASFQKAQQEFAAGVFSNPAVRTAAANAAAGAAENAFRAP
B14: GLO1 (protein, UniProt Q04760 2-184, looked up)
Lactoylglutathione lyase: AEPQPPSGGLTDEAALSCCSDADPSTKDFLLQQTMLRVKDPKKSLDFYTRVLGMTLIQKCDFPIMKFSLYFLAYEDKNDIPKEKDEKIAWALSRKATLELTHNWGTEDDETQSYHNGNSDPRGFGHIGIAVPDVYSACKRFEELGVKFVKKPDDGKMKGLAFIQDPDGYWIEILNPNKMATLM

The test deals with plasma proteins. The test is described as follows: Plasma proteins modulated between baseline and day 28 in responders (CR, VGPR, PR; n = 19), Example 6 (Table 13). Type of test: in vivo, human. The note with it: plasma protein (OLINK NPX); responders (CR, VGPR, PR; n = 19); itacitinib 200 mg or 300 mg QD with corticosteroids; day 28 vs baseline. The procedure:
Due to the limited sample size, steroid-naive (N=10) and steroid-refractory (N=18) patients were combined for further analysis. Broad proteomic analysis of over 1000 proteins was conducted by OLINK Proteomics (Watertown, MA) using a proximity extension assay as described by the manufacturer. Data are presented as normalized protein expression (NPX) in log 2 scale. Statistical differences were evaluated using unpaired and paired t tests, one-way […] (ANOVA), and Pearson Correlation. Significance was conferred when P<0.05.
Longitudinal differences in protein expression were analyzed by evaluating plasma samples from baseline/screening and day 28.
As for B1, the “Fold Change, Decreased Expression from Baseline to Day 28” value (“Fold Change, Decreased Expression” below) is −1.5477.

For B2, the “Fold Change, Decreased Expression” value was −2.0291.

For B3, the “Fold Change, Decreased Expression” value was −1.3893.

For B4, the “Fold Change, Decreased Expression” value was −1.3173.

Turning to B5, the “Fold Change, Increased Expression from Baseline to Day 28” value (“Fold Change, Increased Expression” below) turned out to be 1.152.

As to B6, the “Fold Change, Decreased Expression” value is given as −1.8103.

For B7, the “Fold Change, Increased Expression” value turned out to be 1.7951.

As for B8, the “Fold Change, Increased Expression” value is recorded as 1.3677.

Turning to B9, the “Fold Change, Decreased Expression” value is listed as −1.492.

Regarding B10, the “Fold Change, Increased Expression” value was found to be 1.195.

Take B11: the “Fold Change, Increased Expression” value is reported as 1.1254.

Turning to B12, the “Fold Change, Increased Expression” value is recorded as 1.1639.

On to B13, for which the “Fold Change, Decreased Expression” value is −1.7405.

On to B14, for which the “Fold Change, Decreased Expression” value was −1.2571.
